# IntAct's records for PubMed 11675338
# Experiments:
# fog1_mouse Zfpm1 [1] = target: fog1_mouse Zfpm1 (UniProt O35615)
# fog1_mouse Zfpm1 [2] = target: fog1_mouse Zfpm1 (UniProt O35615); remark: listed apart in the source
# fog1_mouse Zfpm1 [3] = target: fog1_mouse Zfpm1 (UniProt O35615); remark: listed apart in the source
# Sequence of fog1_mouse Zfpm1 (O35615 whole entry): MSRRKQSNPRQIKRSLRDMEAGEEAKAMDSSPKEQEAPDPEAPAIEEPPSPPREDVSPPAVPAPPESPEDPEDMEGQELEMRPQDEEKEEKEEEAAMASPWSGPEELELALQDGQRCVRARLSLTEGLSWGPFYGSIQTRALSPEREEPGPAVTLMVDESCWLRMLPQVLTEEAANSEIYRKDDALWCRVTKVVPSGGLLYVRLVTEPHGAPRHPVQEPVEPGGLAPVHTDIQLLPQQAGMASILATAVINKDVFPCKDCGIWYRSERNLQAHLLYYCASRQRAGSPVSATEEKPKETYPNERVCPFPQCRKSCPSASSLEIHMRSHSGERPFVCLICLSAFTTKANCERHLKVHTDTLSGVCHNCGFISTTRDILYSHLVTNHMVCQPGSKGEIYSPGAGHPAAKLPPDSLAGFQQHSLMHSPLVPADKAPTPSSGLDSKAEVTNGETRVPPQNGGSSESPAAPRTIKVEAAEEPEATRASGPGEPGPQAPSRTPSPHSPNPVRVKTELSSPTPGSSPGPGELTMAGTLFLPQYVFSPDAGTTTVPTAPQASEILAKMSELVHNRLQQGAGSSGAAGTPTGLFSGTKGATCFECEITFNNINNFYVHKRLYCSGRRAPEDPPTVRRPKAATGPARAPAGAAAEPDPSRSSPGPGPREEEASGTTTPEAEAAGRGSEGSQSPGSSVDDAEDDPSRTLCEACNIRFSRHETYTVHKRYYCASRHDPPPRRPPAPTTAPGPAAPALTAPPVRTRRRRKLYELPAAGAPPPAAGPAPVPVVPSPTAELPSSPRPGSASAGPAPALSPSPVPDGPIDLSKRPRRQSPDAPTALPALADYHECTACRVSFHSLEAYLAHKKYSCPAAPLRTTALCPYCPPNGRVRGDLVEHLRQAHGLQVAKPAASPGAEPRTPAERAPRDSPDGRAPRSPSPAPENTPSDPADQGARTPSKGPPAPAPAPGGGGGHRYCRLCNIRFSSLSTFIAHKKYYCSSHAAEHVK
# Sequence of Erythroid transcription factor (Homo sapiens), P15976 G208S (P15976 whole entry G208S): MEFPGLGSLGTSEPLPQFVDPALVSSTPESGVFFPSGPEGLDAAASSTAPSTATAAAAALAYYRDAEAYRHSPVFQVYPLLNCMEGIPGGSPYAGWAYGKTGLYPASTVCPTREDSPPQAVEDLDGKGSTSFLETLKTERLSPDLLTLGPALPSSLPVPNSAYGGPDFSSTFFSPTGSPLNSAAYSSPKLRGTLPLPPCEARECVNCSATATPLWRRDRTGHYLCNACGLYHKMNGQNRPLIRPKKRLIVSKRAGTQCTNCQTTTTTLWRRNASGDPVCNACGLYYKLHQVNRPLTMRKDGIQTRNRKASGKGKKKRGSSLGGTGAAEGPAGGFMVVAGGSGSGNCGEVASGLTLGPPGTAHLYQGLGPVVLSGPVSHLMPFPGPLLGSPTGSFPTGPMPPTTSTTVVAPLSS
substance,measurement,setting,value
"Erythroid transcription factor (Homo sapiens), P15976 G208S",effect of a mutation on the interaction,fog1_mouse Zfpm1 [1],decreasing interaction strength
same,effect of a mutation on the interaction,fog1_mouse Zfpm1 [2],with no effect
same,effect of a mutation on the interaction,fog1_mouse Zfpm1 [3],increasing interaction strength
